In patent US20260092093A1 (TJ BIOPHARMA SHANGHAI, published 2026):

T1: recombinant hIL-18Rα extracellular domain (human, UniProt Q13478 22-329, biotin label (selection) or fluorescent probe (single-clone FACS), sites not given)
T1 construct: extracellular domain; also called hIL-18Rα ECD; hIL-18Rα-ECD
T1 sequence (looked up): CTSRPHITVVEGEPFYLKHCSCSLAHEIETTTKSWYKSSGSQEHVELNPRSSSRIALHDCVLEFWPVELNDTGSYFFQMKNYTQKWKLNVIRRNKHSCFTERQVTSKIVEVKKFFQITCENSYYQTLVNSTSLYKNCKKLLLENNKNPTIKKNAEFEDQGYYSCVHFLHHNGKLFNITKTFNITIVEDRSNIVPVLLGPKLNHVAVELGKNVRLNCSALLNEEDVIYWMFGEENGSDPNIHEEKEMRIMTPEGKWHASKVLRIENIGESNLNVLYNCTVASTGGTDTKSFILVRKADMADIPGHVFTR

B1: SEQ ID NO 61 (ligand)
chain: YFPKLKSKLSVIRNLNDQVLFIDQGNRPLFEDMTDSDCRDNAPRTIFIISMYKFSTERGMAVTISVKCEKISTLSCENKIISFKEMNPPDPIKDTKSDIIFFQRSVPGHDNKMQFESSSYEGYFLACEKERDLFKLILKKEDELGDRSIMFTVQNED
B2: SEQ ID NO 82 (ligand)
chain: YFPKLRSKLSVIRNLNDQVLFIDQGNRPLFEDMTDSDCRDNAPRTIFIISMYKLSTIRGMAVTISVKCEKISTLSCENKIISFKEMNPPDYIKDTKSDIIFFQRSVPGHDNKMQFESSSYEGYFLACEKERDLFKLILKKEDELGDRSIMFTVQNED
B3: SEQ ID NO 63 (ligand)
chain: YFPKLQSKLSVIRNLNDQVLFIDQGNRPLFEDMTDSDCRDNAPRTIFIISMYKLSTPRGMAVTISVKCEKISTLSCENKIISFKEMNPPDAIKDTKSDIIFFQRSVPGHDNKMQFESSSYEGYFLACEKERDLFKLILKKEDELGDRSIMFTVQNED
B4: SEQ ID NO 79 (ligand)
chain: YFPKLGSKLSVIRNLNDQVLFIDQGNRPLFEDMTDSDCRDNAPRTIFIISMYKWSQPRGMAVTISVKCEKISTLSCENKIISFKEMNPPDVIKDTKSDIIFFQYSVPGHDNKMQFESSSYEGYFLACEKERDLFKLILKKEDELGDRSIMFTVQNED
B5: SEQ ID NO 93 (ligand)
chain: YFGKLPSKLSVIRNLNDQVLFIDQGNRPLFEDMTDSDCRDNAPRTIFIISMYKLSNRRGMAVTISVKCEKISTLSCENKIISFKEMNPPDGIKDTKSDIIFFQRSVPGHDNKMQFESSSYEGYFLACEKERDLFKLILKKEDELGDRSIMFTVQNED
B6: SEQ ID NO 67 (ligand)
chain: YFTKLRSKLSVIRNLNDQVLFIDQGNRPLFEDMTDSDCRDNAPRTIFIISMYKLSHLRGIAVTISVKCEKISTLSCENKIISFKEMNPPDAIKDTKSDIIFFQSSVPGHDNKMQFESSSYEGYFLACEKERDLFKLILKKEDELGDRSIMFTVQNED
B7: SEQ ID NO 89 (ligand)
chain: YFPKLASKLSVIRNLNDQVLFIDQGNRPLFEDMTDSDCRDNAPRTIFIISMYKHSSKRGMAVTISVKCEKISTLSCENKIISFKEMNPPDVIKDTKSDIIFFQVSVPGHDNKMQFESSSYEGYFLACEKERDLFKLILKKEDELGDRSIMFTVQNED
B8: SEQ ID NO 83 (ligand)
chain: YFWKLWSKLSVIRNLNDQVLFIDQGNRPLFEDMTDSDCRDNAPRTIFIISMYKPSNFRGMAVTISVKCEKISTLSCENKIISFKEMNPPDVIKDTKSDIIFFQGSVPGHDNKMQFESSSYEGYFLACEKERDLFKLILKKEDELGDRSIMFTVQNED
B9: SEQ ID NO 88 (ligand)
chain: YFPKLSSKLSVIRNLNDQVLFIDQGNRPLFEDMTDSDCRDNAPRTIFIISMYKHSSRRGMAVTISVKCEKISTLSCENKIISFKEMNPPDVIKDTKSDIIFFQASVPGHDNKMQFESSSYEGYFLACEKERDLFKLILKKEDELGDRSIMFTVQNED
B10: SEQ ID NO 64 (ligand)
chain: YFPKLNSKLSVIRNLNDQVLFIDQGNRPLFEDMTDSDCRDNAPRTIFIISMYKVPTARGMAVTISVKCEKISTLSCENKIISFKEMNPPDAIKDTKSDIIFFQRSVPGHDNKMQFESSSYEGYFLACEKERDLFKLILKKEDELGDRSIMFTVQNED
B11: SEQ ID NO 85 (ligand)
chain: YFPKLKSKLSVIRNLNDQVLFIDQGNRPLFEDMTDSDCRDNAPRTIFIISMYKWSGGRGMAVTISVKCEKISTLSCENKIISFKEMNPPDSIKDTKSDIIFFQFSVPGHDNKMQFESSSYEGYFLACEKERDLFKLILKKEDELGDRSIMFTVQNED
B12: SEQ ID NO 69 (ligand)
chain: YFPKLVSKLSVIRNLNDQVLFIDQGNRPLFEDMTDSDCRDNAPRTIFIISMYKWSAIRGMAVTISVKCEKISTLSCENKIISFKEMNPPDVIKDTKSDIIFFQTSVPGHDNKMQFESSSYEGYFLACEKERDLFKLILKKEDELGDRSIMFTVQNED
B13: SEQ ID NO 68 (ligand)
chain: YFPKLKSKLSVIRNLNDQVLFIDQGNRPLFEDMTDSDCRDNAPRTIFIISMYKWSPWRGMAVTISVKCEKISTLSCENKIISFKEMNPPDNIKDTKSDIIFFQTSVPGHDNKMQFESSSYEGYFLACEKERDLFKLILKKEDELGDRSIMFTVQNED
B14: SEQ ID NO 90 (ligand)
chain: YFPKLRSKLSVIRNLNDQVLFIDQGNRPLFEDMTDSDCRDNAPRTIFIISMYKSSLKRGMAVTISVKCEKISTLSCENKIISFKEMNPPDTIKDTKSDIIFFQSSVPGHDNKMQFESSSYEGYFLACEKERDLFKLILKKEDELGDRSIMFTVQNED
B15: SEQ ID NO 70 (ligand)
chain: YFPKLRSKLSVIRNLNDQVLFIDQGNRPLFEDMTDSDCRDNAPRTIFIISMYKWSGGRGMAVTISVKCEKISTLSCENKIISFKEMNPPDAIKDTKSDIIFFQLSVPGHDNKMQFESSSYEGYFLACEKERDLFKLILKKEDELGDRSIMFTVQNED
B16: SEQ ID NO 80 (ligand)
chain: YFPKLRSKLSVIRNLNDQVLFIDQGNRPLFEDMTDSDCRDNAPRTIFIISMYKWSYPRGMAVTISVKCEKISTLSCENKIISFKEMNPPDGIKDTKSDIIFFQFSVPGHDNKMQFESSSYEGYFLACEKERDLFKLILKKEDELGDRSIMFTVQNED
B17: SEQ ID NO 75 (ligand)
chain: YFPKLGSKLSVIRNLNDQVLFIDQGNRPLFEDMTDSDCRDNAPRTIFIISMYKHSSRRGMAVTISVKCEKISTLSCENKIISFKEMNPPDVIKDTKSDIIFFQNSVPGHDNKMQFESSSYEGYFLACEKERDLFKLILKKEDELGDRSIMFTVQNED
B18: SEQ ID NO 87 (ligand)
chain: YFPKLGSKLSVIRNLNDQVLFIDQGNRPLFEDMTDSDCRDNAPRTIFIISMYKGSHFRGMAVTISVKCEKISTLSCENKIISFKEMNPPDGIKDTKSDIIFFQSSVPGHDNKMQFESSSYEGYFLACEKERDLFKLILKKEDELGDRSIMFTVQNED
B19: SEQ ID NO 84 (ligand)
chain: YFPKLKSKLSVIRNLNDQVLFIDQGNRPLFEDMTDSDCRDNAPRTIFIISMYKMSSARGMAVTISVKCEKISTLSCENKIISFKEMNPPDGIKDTKSDIIFFQSSVPGHDNKMQFESSSYEGYFLACEKERDLFKLILKKEDELGDRSIMFTVQNED
B20: SEQ ID NO 92 (ligand)
chain: YFWKLSSKLSVIRNLNDQVLFIDQGNRPLFEDMTDSDCRDNAPRTIFIISMYKQSLRRGMAVTISVKCEKISTLSCENKIISFKEMNPPDRIKDTKSDIIFFQASVPGHDNKMQFESSSYEGYFLACEKERDLFKLILKKEDELGDRSIMFTVQNED
B21: SEQ ID NO 86 (ligand)
chain: YFPKLNSKLSVIRNLNDQVLFIDQGNRPLFEDMTDSDCRDNAPRTIFIISMYKLSTVRGMAVTISVKCEKISTLSCENKIISFKEMNPPDPIKDTKSDIIFFQHSVPGHDNKMQFESSSYEGYFLACEKERDLFKLILKKEDELGDRSIMFTVQNED
B22: SEQ ID NO 76 (ligand)
chain: YFPKLKSKLSVIRNLNDQVLFIDQGNRPLFEDMTDSDCRDNAPRTIFIISMYKWSWARGMAVTISVKCEKISTLSCENKIISFKEMNPPDLIKDTKSDIIFFQYSVPGHDNKMQFESSSYEGYFLACEKERDLFKLILKKEDELGDRSIMFTVQNED
B23: SEQ ID NO 71 (ligand)
chain: YFPKLYSKLSVIRNLNDQVLFIDQGNRPLFEDMTDSDCRDNAPRTIFIISMYKHSTNRGMAVTISVKCEKISTLSCENKIISFKEMNPPDGIKDTKSDIIFFQRSVPGHDNKMQFESSSYEGYFLACEKERDLFKLILKKEDELGDRSIMFTVQNED
B24: SEQ ID NO 77 (ligand)
chain: YFPKLRSKLSVIRNLNDQVLFIDQGNRPLFEDMTDSDCRDNAPRTIFIISMYKHSYTRGMAVTISVKCEKISTLSCENKIISFKEMNPPDIIKDTKSDIIFFQYSVPGHDNKMQFESSSYEGYFLACEKERDLFKLILKKEDELGDRSIMFTVQNED
B25: SEQ ID NO 78 (ligand)
chain: YFKKLPSKLSVIHNLNDQVLFIDQGNRPLFEDMTDSDCRDNAPRTIFIISMYKLSSERGMAVTISVKCEKISTLSCENKIISFKEMNPPDNIKDTKSDIIFFQRSVPGHDNKMQFESSSYEGYFLACEKERDLFKLILKKEDELGDRSIMFTVQNED

target: T1, recombinant hIL-18Rα extracellular …; test: single-clone FACS, yeast display, 10 nM labelled hIL-18Rα ECD
Method: Following the screens described in Example 2, single clone FACS analysis was performed to verify the binding of selected yeast cell surface-expressed IL-18 variant polypeptides from Round 4 and Round 5 to 10 nM hIL-18Rα-ECD. Briefly, each yeast clone at the same density was incubated with 10 nM IL-18Rα-ECD labeled by fluorescent probe, respectively, followed by washing step. Then the ratio of fluorescent positive IL-18Rα ECD binding yeasts in the population of each clone were analyzed.

Binder	% of fluorescence positive cells [%]
B1	76.1
B2	14.5
B3	72.6
B4	21.5
B5	4.48
B6	66.4
B7	5.27
B8	13.5
B9	5.45
B10	70.8
B11	10.8
B12	60.9
B13	60.9
B14	5.15
B15	51.3
B16	18.6
B17	30
B18	6.12
B19	11.5
B20	4.48
B21	9.28
B22	29.7
B23	45.1
B24	28.4
B25	27.8
